Test results reported in FireProtDB (doi:10.1021/bi034798l).

B1: SH2 domain-containing protein 1A, O60880 (parent)
chain: MDAVAVYHGKISRETGEKLLLATGLDGSYLLRDSESVPGVYCLCVLYHGYIYTYRVSQTETGSWSAETAPGVHKRYFRKIKNLISAFQKPDQGIVIPLQYPVEKKSSARSTQGTTGIREDPDVCLKAP

Variants of: B1
Details: Homo sapiens; pH 7.4; Thermal; CD; Phosphate buffer saline; structure 1KA6; whole UniProt chain shown

Q: What does the source list for L31P?
A: Tm: 45.6 °C; change of melting temperature, mutant - wild type (higher = more stable): -12.2 °C

Q: With F87S as the variant, how does the Tm read?
A: 50.5 °C

Q: What about the “change of melting temperature, mutant - wild type (higher = more stable)” value of the same variant?
A: -7.3 °C

Q: Which results are given for E67D?
A: Tm: 44.2 °C; change of melting temperature, mutant - wild type (higher = more stable): -13.6 °C

Q: What does the source list for Y54C?
A: Tm: 48.2 °C; change of melting temperature, mutant - wild type (higher = more stable): -9.6 °C

Q: Which results are given for G93D?
A: Tm: 49.1 °C; change of melting temperature, mutant - wild type (higher = more stable): -8.7 °C
